Data from publication PMC6511732.
Where “and” joins values, the source holds several entries; their conditions need not be identical. Equal values may be shown once. Read-outs that look alike come from different tables or passages of the source.

How the values were obtained:
Assay in all cases: native MS
Phycocyanin α6β6 complex = molecular target: Phycocyanin α6β6 complex
[1] = molecular target: Phycocyanin α6β6γ complex
[2] = molecular target: Phycocyanin αβ-heterodimer
[3] = molecular target: Phycocyanin αβ-heterodimer; remark: listed apart in the source
[4] = molecular target: R-phycoerythrin α6β6γ complex

## Phycocyanin α6β6 complex
Phycocyanin α6β6 complex
  stoichiometry N: 2

## Phycocyanin α6β6γ complex
[1]
  stoichiometry N: 2

## Phycocyanin αβ-heterodimer (complex)
[2]
  stoichiometry N: 6
[3]
  stoichiometry N: 3 and 6

## R-phycoerythrin α6β6γ complex
[4]
  stoichiometry N: 2
